From article doi:10.1101/2022.10.14.512337 come the findings set out here.

Usually stoichiometry N stands for the number of molecules, sites or subunits per partner or assembly.

Test [1] has as its target L. farciminis oxalate decarboxylase (OxDC), as used for size-exclusion chromatography (L. farciminis). The test can be described thus: SEC.
Test [2] addresses truncated protein consisting of the main body of L. farciminis OxDC (aa 22-373) (L. farciminis). The test can be described thus: crystal structure.

Where “and” joins values, the source holds several entries; their conditions need not be identical. Equal values may be shown once.

Regarding “L. farciminis oxalate decarboxylase (OxDC), as used for size-exclusion chromatography (enzyme)”, in test [1], the stoichiometry N is 2 and 6.
“truncated protein consisting of the main body of L. farciminis OxDC (aa 22-373) (domain or fragment)”: the stoichiometry N in test [2] was 6.
